Test results reported in patent US20250215092A1 (ZHEJIANG NANOMAB TECHNOLOGY CENTER, published 2025).

Assays:
[1] = biological target: T1, Mouse EGFR Protein, His Tag (Acro, Cat #EGR-M5224) (mouse, UniProt Q01279 25-647); experiment: ELISA, coated antigen 1 ug/mL, antibody 50 nM
T1 construct: extracellular domain; Bought protein; not shown: His tag
Protocol: (§1) ELISA was used to identify the binding of VHH-IgG4 antibodies to the extracellular domains of mouse EGFR, monkey EGFR, and human EGFR proteins. The detection steps were as follows: Mouse EGFR Protein, His Tag (Acro, Cat #EGR-M5224) and Rhesus macaque EGFR Protein, His Tag (Acro, Cat #EGR-C52H1) were diluted to 1 μg/mL with phosphate buffer, and 100 μL of each dilution was added to a 96-well ELISA plate and coated overnight at 4° C. The next day, the plates were washed twice with PBST (containing 0.5% TWEEN-20) and then blocked with 3% BSA at 37° C. for 1.5 h, followed by two washes with PBST. VHH-IgG4 antibodies were diluted to 50 nM, and 100 μL of the dilution was added to each well and incubated at 37° C. for 1 h. The plates were then washed three times with PBST, and 100 μL of HRP-labeled goat anti-human IgG Fc antibody (1:10000, Bethyl) was added to each well and incubated at 37° C. for another 40 min. After washing the plates four times with PBST, 100 μL of TMB substrate was added to each well, and the reaction was allowed to proceed for 3-5 min. The reaction was stopped by adding 100 μL of 3N hydrochloric acid per well. After stopping the reaction, the optical density at 450/650 nm was measured using a Tecan microplate reader.

[2] = biological target: T2, Rhesus macaque EGFR Protein, His Tag (Acro, Cat #EGR-C52H1) (rhesus macaque, UniProt P55245 25-645); experiment: ELISA, coated antigen 1 ug/mL, antibody 50 nM
T2 construct: extracellular domain; Bought protein; also called Monkey EGFR; not shown: His tag
Protocol: as §1

[3] = biological target: T3, EGFR-D1D2 (L25-A310, P00533-1 (uniprot)) his tag antigen (human, UniProt P00533 25-310); experiment: ELISA: EGFR-D1D2 his tag antigen coated at 0.5 µg/mL, antibody at 2000, 200, 20, 2 nM, HRP goat anti-human IgG Fc, OD450
T3 construct: range 25-310; also called I+II domain protein; EGFR-D1D2 protein; not shown: His tag
Protocol: (2) Protein Binding Epitope Analysis: ELISA was used to determine the binding of VHH-IgG4 antibody to each domain of EGFR extracellular protein. Briefly, EGFR his tag protein, and EGFR-V3-his tag antigen protein were diluted to 1 μg/mL, EGFR-D1D2 (L25-A310, P00533-1 (uniprot)), and EGFR-D4 (F481-S645, P00533-1 (uniprot)) his tag antigen were diluted to 0.5 μg/mL, and each well of an ELISA plate was coated with […] antigen and incubated overnight at 4° C. The next day, the plates were washed twice with PBST (added with 0.5% TWEEN-20), then blocked with 3% BSA at 37° C. for 1.5 h, and then washed twice with PBST. Then, the antibody to be tested was diluted to 50 nM, 5 nM, 0.5 nM, 0.05 nM, and added to the wells coated with EGFR his tag protein or EGFR-V3-his tag antigen at 100 µL/well, respectively. The antibody was diluted to 2000 nM, 200 nM, 20 nM, 2 nM, and added to the wells coated with EGFR his tag protein or EGFR-V3-his tag antigen at 100 µL/well, respectively. The ELISA plates were incubated at 37° C. for 1 h. The plates were then washed three times with PBST, and then 100 μL HRP labeled Goat anti human IgG Fc antibody (1:10000, Bethyl) was added into each well, and incubated at 37° C. for another 40 min. After washing the plates four times with PBST, 100 μL of TMB substrate was added to each well, and the reaction was allowed to proceed for 3-5 min. The reaction was stopped by adding 100 μL of 3N hydrochloric acid per well. After stopping the reaction, the optical density at 450/650 nm was measured using a Tecan microplate reader.

[4] = biological target: T4, Region III of EGFR expressed on HEK293T cells (human, UniProt P00533); experiment: flow cytometry on HEK293T cells expressing EGFR region III, anti-human IgG PE, MFI, curve fit; unit from the concentration axis and paragraph 62 [table]
T4 construct: also called HEK293T EGFR-III cells; stably transformed cell line 293T overexpressing EGFR III region protein
Protocol: HEK293T cells that express Region III of EGFR (i.e., HEK293T […] cells) were plated in a 96-well plate with 3×10⁵ cells/well, and then HEK293T […] cells were incubated with gradient diluted VHH-IgG4 antibody. After incubation for half an hour, anti-human IgG PE (Jackson Immuno Research, Code: 109-117-008, Lot:145501) as the secondary antibody for detection was added for incubation, and then CytoFLEX flow cytometer was used for detection. The EC50 of the antibody was calculated by curve fitting with Graphprism8.0 software. Isotype 1 in the figure is a negative control, and its amino acid sequence is shown as SEQ ID NO: 2 in CN106046152A.

[5] = biological target: T5, human EGFR.His antigen (Acro, Cat #EGR-H522a) (human, UniProt P00533 25-645); experiment: SPR, antibody captured on protein A, EGFR.His in flow
T5 construct: extracellular domain; Bought protein; also called EGFR his tag protein; full-length EGFR extracellular domain protein; not shown: His tag
Protocol: The binding kinetics and affinity of candidate antibody to human EGFR.His antigen were determined using surface plasmon resonance (SPR). The purified antibody was flowed through the sensor chips pre-immobilized with protein A, and the antibody was captured by protein A. Then five different concentrations of EGFR.His protein were used as the mobile phase, and the binding time and dissociation time were […], respectively. The binding rate (kon), dissociation rate (koff), and equilibrium constant (kD) were analyzed using Biacore Evaluation Software 2.0 (GE). EC225, an antibody that binds to region III of human EGFR, was selected as a positive control (sequence source https.//go.drugbank.com/drugs/DB00002).

Binder | OD450 [1] | OD450 [2] | binding result [3] | EC50 [4] | Kd [5] | koff [5] | kon [5]
E008 VHH-IgG4 antibody (antibody, V domains shown, VHH fused to IgG4 (VHH-IgG4), expressed in ExpiCHO, protein A purified; not shown: human IgG4 constant part from the pCDNA3.4-IgG4 vector) VH: EVQVVESGGGLVQSGGSLTLSCTSSGLPLLDYAIGWFRQAPGKEREAVSAISISEGSTYYTDSVRGRFTISRDNNKNKVYLRMDNLKPEDTAVYYCAADKTDIGFWLLVGGAGGGEVRYEYWGQGTQVTVSS | 0.72 OD450 | 3.68 OD450 | no binding (tested: 2000 nM) | 0.18 nM | 9.62 nM | 0.0148 s⁻¹ | 1.53e+06 M⁻¹ s⁻¹
E002 VHH-IgG4 antibody (antibody, V domains shown, VHH fused to IgG4 (VHH-IgG4), expressed in ExpiCHO, protein A purified; not shown: human IgG4 constant part from the pCDNA3.4-IgG4 vector) VH: QVQLVESGGGLVQAGGSLRLSCAASGFTFSDYAVSWYRQAPGKEREFVARITGTGETSRYEDSVKGRFAISRDNVKNTAYLQMNSLKPEDTAVYYCSIYHPPRDYWGQGTQVTVSS | 2.73 OD450 | 3.06 OD450 | no binding (tested: 2000 nM) | 0.095 nM | 2.49 nM | 0.000121 s⁻¹ | 48500 M⁻¹ s⁻¹
E005 VHH-IgG4 antibody (antibody, V domains shown, VHH fused to IgG4 (VHH-IgG4), expressed in ExpiCHO, protein A purified; not shown: human IgG4 constant part from the pCDNA3.4-IgG4 vector) VH: QVQLVESGGGLVQPGGSLRLSCEASGFAFSDYTMRWHRQAAGKELELVAYITSAGDIIKYANSVRGRFTISRDNAKNTLYLQMDSLKPEDTAVYRCNALVSASVRASDYWGQGTLVTVSS | 3.33 OD450 | 3.19 OD450 | no binding (tested: 2000 nM) | 0.98 nM | 2.86 nM | 4.67e-05 s⁻¹ | 16400 M⁻¹ s⁻¹
E007 VHH-IgG4 antibody (antibody, V domains shown, not shown: a dimerising Fc or GST) VH: EVQLVESGGGLVQPGGSLRLSCEASGFSFSDHTMRWHRQAAGKNLELVAYITPAGDIIKYADSVQGRFTISRDNAKNMLYLQMDSLRPDDTAVYRCNALVSAAVRASDYWGQGTQVTVSS | 3.21 OD450 | 3.35 OD450 | no binding (tested: 2000 nM) | 0.47 nM | 0.292 nM | 1.08e-05 s⁻¹ | 37100 M⁻¹ s⁻¹
E004 VHH-IgG4 antibody (antibody, V domains shown, not shown: a dimerising Fc or GST) VH: EVQLVESGGGLAQSGGSLRLACEASGFPFETYAMSWARQTPGNEPEWVAGIFPDGKHTAYAHSVKGRFTISRVNANNTVYLQMDSLKPEDTAVYYCAKDLPFFATPSFYIGYWGQGTLVTVSS | 3.37 OD450 | 3.64 OD450 | no binding (tested: 2000 nM) | 0.39 nM | 5.17 nM | 0.000776 s⁻¹ | 150000 M⁻¹ s⁻¹
E003 VHH-IgG4 antibody (antibody, V domains shown, not shown: a dimerising Fc or GST) VH: QVQLVESGGGLVQPGGSLRLSCVASGGVFSSYAMGWYRQVPGKLRELVATITSGHSTTYADIVRGRFTISRDNTKNTVYLQMNRLEPDDTAVYYCNRSPYTPGNWGQGTLVTVSS | 2.8 OD450 | 3.15 OD450 | no binding (tested: 2000 nM) | 0.36 nM | 4.68 nM | 0.000133 s⁻¹ | 28400 M⁻¹ s⁻¹
